Experimental findings from patent publication US20250027068 are described below.

Sequences and labels used below:
B1: PRT-592 (protein)
chain: MANQEIRYSEETPSTITSVWTKGVTPPTDFIQNEDVLHAPYIANQGWYDITKTFNGKDDLLCGAATAGNMLHWWFDQNKEQIENYLKKHPEKQKINFNGEQMFDVKEAIDTKNSQTDSALFEYFKDKAFPYLSTKHLGVFPDHVIDMFINGYRLSLTNHGPTPVKRGTKDPRGGIFDAVFTRGDQSKLLTSRHDFKEKTLNEISDLIKQELTEGKALGLSHTYANVRINHVINLWGADFNAEGNLEAIYVTDSDSNASIGMKKYYVGVNSAGKVAISAKEIEGDNIGAQVLGLFTLSTGQDIWNQTNLEHHHHHH
B2: PRT-530 (protein)
chain: MANQEIRYSEETPKTITSVWTKGVTPPTDFIQNEDVLHAPYIANQGWYDITKTFNGKDDLLCGAATAGNMLHWWFDQNKEEIENYLKKHPEKQKINFNGEQMFDVKEAIDTKDSQTDSALFEYFKDKAFPYLSTKHLGVMPDLVLDMFINGYYLSVGKHGPTPVKRGTKDPRGGIFDAVFTRGDQSKLLTARHDFKEKTLNEISDLIKQELTEGKALALSHTYANVRINHVINLWGADFNSEGNLEAIYVTDSDSNASIGMKKYYVGVNAAGKVAISAKEIEGDNIGAQVLGLFTLSTGQDIWEQTNLEHHHHHH
B3: PRT-551 (protein)
chain: MANQEIRYSEETPSTITSVWTKGVTPPTDFIQNEDVLHAPYIANQGWYDITKTFNGKDDLLCGAATAGNMLHWWFDQNKEEIENYLKKHPEKQKINFNGEQMFDVKEAIDTKDSQTDSALFEYFKDKAFPYLSTKHLGVFPDHVIDMFINGYRLSLTNHGPTPVKRGTKDPRGGIFDAVFTRGDQSKLLTARHDFKEKTLNEISDLIKQELTEGKALGLSHTYANVRINHVINLWGADFNSEGNLEAIYVTDSDSNASIGMKKYYVGVNAAGKVAISAKEIEGDNIGAQVLGLFTLSTGQDIWNQTNLEHHHHHH
B4: PRT-562 (protein)
chain: MANQEIRYSKATPSHITSVWTKGVTPPEQFIQNEDVLHAPYIANQGWYDITKTFNGKDDLLCGAATAGNMLHWWFDQNKEQIENYLKKHPEKQKINFNGEQMFDVKEAIDTKDSQTNSALFSYFKDKAFPYLSTKHLGVFPDHVIDMFINGYRLSLTNHGPTPVKEQTKDPRGGIFDAVFTRGDQSKLLTSRHDFKEKTLNEISQLIKQELTEGKALGLSHTYANVRINHVINLWGADFNAEGNLEAIYVTDSDSNASIGMKKYYVGVNSAGKVAISAKEIEGDNIGAQVLGLFTLSTGQDIWQQTNLEHHHHHH
B5: PRT-536 (protein)
chain: MANQEIRYSGDSEWANKKVWVYGITPAEEGAWLYSTYYLPWKKEYGWYDCNKRNPTADGMMCWAASASNLMHWWIAQNKRYIDLYGDRYKGPDKINFNGEQMFDVKEYIDPLDKPQESDIFQCFIDKSFADLSTKHEAGKGDEGINWFIHGIIPSYPAHGPTPVKLRYPYNPAGYFKDVFPRGDGVVLGGNNGDFKELGKERFNETIKDALANKKGIGLSIGPVNVRKSHVETMWGAEFDENGDVSYIYMADNNDRWGVGCIRLQIVYVEGATYTCYKTEIIPSDRPIPINRLVTVELGEEYWKQTNLEHHHHHH

The target of the data set is pooled human IgG.
The protein B1 had an Enzyme Activity Endpoint Assay: Fab′2 of 664 ng/µL, an Enzyme Activity Endpoint Assay: Fc of 359 ng/µL, an Enzyme Activity Endpoint Assay: IgG of 0 ng/µL and an Enzyme Activity Endpoint Assay: scIgG of 0 ng/µL.
The protein B2 displayed an Enzyme Activity Endpoint Assay: Fab′2 of 87 ng/µL, an Enzyme Activity Endpoint Assay: Fc of 225 ng/µL, an Enzyme Activity Endpoint Assay: IgG of 74 ng/µL and an Enzyme Activity Endpoint Assay: scIgG of 687 ng/µL.
In turn, B3 gave an Enzyme Activity Endpoint Assay: Fab′2 of 444 ng/µL, an Enzyme Activity Endpoint Assay: Fc of 217 ng/µL, an Enzyme Activity Endpoint Assay: IgG of 0 ng/µL and an Enzyme Activity Endpoint Assay: scIgG of 0 ng/µL.
For B4, the Enzyme Activity Endpoint Assay: Fab′2 stood at 705 ng/µL, the Enzyme Activity Endpoint Assay: Fc worked out at 380 ng/µL, the Enzyme Activity Endpoint Assay: IgG came to 0 ng/µL and the Enzyme Activity Endpoint Assay: scIgG came to 238 ng/µL.
On to B5, for which the Enzyme Activity Endpoint Assay: Fab′2 came to 0 ng/µL, the Enzyme Activity Endpoint Assay: Fc came to 0 ng/µL, the Enzyme Activity Endpoint Assay: IgG was 1530 ng/µL and the Enzyme Activity Endpoint Assay: scIgG was determined as 0 ng/µL.
